Laboratory results reported in patent EP1516629B1.

Target: T1, human CD11a (human) (UniProt P20701)
T1 sequence (looked up): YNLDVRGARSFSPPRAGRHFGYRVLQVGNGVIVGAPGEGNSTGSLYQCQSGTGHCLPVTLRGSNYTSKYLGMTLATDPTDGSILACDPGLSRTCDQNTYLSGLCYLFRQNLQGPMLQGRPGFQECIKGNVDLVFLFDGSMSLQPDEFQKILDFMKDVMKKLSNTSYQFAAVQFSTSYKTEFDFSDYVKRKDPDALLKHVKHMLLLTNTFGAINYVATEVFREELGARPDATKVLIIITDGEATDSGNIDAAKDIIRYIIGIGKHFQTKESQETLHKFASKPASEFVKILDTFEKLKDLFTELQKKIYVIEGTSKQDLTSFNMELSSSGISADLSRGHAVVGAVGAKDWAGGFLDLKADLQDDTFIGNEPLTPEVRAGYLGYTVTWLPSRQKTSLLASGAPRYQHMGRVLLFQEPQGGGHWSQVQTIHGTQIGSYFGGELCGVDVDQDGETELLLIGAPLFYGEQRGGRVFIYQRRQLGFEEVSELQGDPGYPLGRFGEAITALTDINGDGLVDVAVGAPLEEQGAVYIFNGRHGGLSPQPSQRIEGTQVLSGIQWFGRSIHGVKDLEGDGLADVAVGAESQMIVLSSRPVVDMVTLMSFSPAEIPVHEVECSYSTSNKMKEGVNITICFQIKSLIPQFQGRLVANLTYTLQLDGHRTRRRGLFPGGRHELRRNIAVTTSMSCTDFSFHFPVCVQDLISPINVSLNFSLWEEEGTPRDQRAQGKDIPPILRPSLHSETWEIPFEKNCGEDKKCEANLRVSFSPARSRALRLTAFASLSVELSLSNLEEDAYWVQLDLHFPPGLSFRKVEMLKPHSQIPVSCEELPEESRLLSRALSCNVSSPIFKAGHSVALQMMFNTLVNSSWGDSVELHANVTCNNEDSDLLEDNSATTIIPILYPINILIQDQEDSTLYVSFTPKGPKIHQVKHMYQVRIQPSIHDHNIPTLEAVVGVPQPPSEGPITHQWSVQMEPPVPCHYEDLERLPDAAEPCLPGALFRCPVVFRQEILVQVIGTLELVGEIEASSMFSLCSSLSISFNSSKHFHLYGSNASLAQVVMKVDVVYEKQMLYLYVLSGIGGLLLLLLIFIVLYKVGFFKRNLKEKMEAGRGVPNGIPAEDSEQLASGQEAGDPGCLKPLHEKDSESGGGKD
Test: FACScan, Jurkat cells

B1: L2 variant IgG1 (antibody, V domains shown)
VH: EVQLVESGGGLVQPGGSLRLSCAASGYSFTGHWMNWVRQAPGKGLEWVGMIHPSDSETRYNQKFKDRFTISVDKSKNTLYLQMNSLRAEDTAVYYCARGIYFYGTTYFDYWGQGTLVTVSS
VL: DIQMTQSPSSLSASVGDRVTITCRASKTISKYLAWYQQKPGKAPKLLIYAGAALQSGVPSRFSGSGSGTDFTLTISSLQPEDFATYYCQQHNEYPLTFGQGTKVEIKR
Var.EC50/HuIgG1 EC50: 1.1

B2: TyrL94Ala variant IgG1 (antibody, V domains shown)
VH: EVQLVESGGGLVQPGGSLRLSCAASGYSFTGHWMNWVRQAPGKGLEWVGMIHPSDSETRYNQKFKDRFTISVDKSKNTLYLQMNSLRAEDTAVYYCARGIYFYGTTYFDYWGQGTLVTVSS
VL: DIQMTQSPSSLSASVGDRVTITCRASKTISKYLAWYQQKPGKAPKLLIYSGSTLQSGVPSRFSGSGSGTDFTLTISSLQPEDFATYYCQQHNEAPLTFGQGTKVEIKR
Var.EC50/HuIgG1 EC50: 11.8

B3: AspH54Glu variant IgG1 (antibody, V domains shown)
VH: EVQLVESGGGLVQPGGSLRLSCAASGYSFTGHWMNWVRQAPGKGLEWVGMIHPSESETRYNQKFKDRFTISVDKSKNTLYLQMNSLRAEDTAVYYCARGIYFYGTTYFDYWGQGTLVTVSS
VL: DIQMTQSPSSLSASVGDRVTITCRASKTISKYLAWYQQKPGKAPKLLIYSGSTLQSGVPSRFSGSGSGTDFTLTISSLQPEDFATYYCQQHNEYPLTFGQGTKVEIK
Variant EC50/HulgG1 EC50: 16

B4: humanized MHM24 F(ab)-5 (Fab, V domains shown)
VH: EVQLVESGGGLVQPGGSLRLSCAASGFSFTGHWMNWVRQAPGKGLEWVGMIHPSDSETRYNQKFKDRFTISVDKSSSTLYLQMNSLRAEDTAVYYCARGIYFYGTTYFDYWGQGTLVTVSS
VL: DIQMTQSPSSLSASVGDRVTITCRASKTISKYLAWYQQKPGKAPKLLIYSGSSLESGVPSRFSGSGSGTDFTLTISSLQPEDFATYYCQQHNEYPLTFGQGTKVEIK
EC50 F(ab)/EC50 F(ab)-2: 0.043
fold improvement in binding over F(ab)-2: 23 fold

B5: humanized MHM24 F(ab)-4 (Fab, V domains shown)
VH: EVQLVESGGGLVQPGGSLRLSCAASGFSFTGHWMNWVRQAPGKGLEWVGMIHPSDSETRYNQKFKDRFTISRDNSKNTLYLQMNSLRAEDTAVYYCARGIYFYGTTYFDYWGQGTLVTVSS
VL: DIQMTQSPSSLSASVGDRVTITCRASKTISKYLAWYQQKPGKAPKLLIYSGSSLESGVPSRFSGSGSGTDFTLTISSLQPEDFATYYCQQHNEYPLTFGQGTKVEIK
EC50 F(ab)/EC50 F(ab)-2: 2.9
fold reduction in binding against F(ab)-2: 3 fold

B6: H2C11 variant IgG1 (antibody, V domains shown)
VH: EVQLVESGGGLVQPGGSLRLSCAASGYSFTGHWMNWVRQAPGKGLEWVGMIAPASSNTRYNQKFKDRFTISVDKSKNTLYLQMNSLRAEDTAVYYCARGIYFYGTTYFDYWGQGTLVTVSS
VL: DIQMTQSPSSLSASVGDRVTITCRASKTISKYLAWYQQKPGKAPKLLIYSGSTLQSGVPSRFSGSGSGTDFTLTISSLQPEDFATYYCQQHNEYPLTFGQGTKVEIK
Var.EC50/HuIgG1 EC50: 24.9

B7: humanized MHM24 F(ab)-3 (Fab, V domains shown)
VH: EVQLVESGGGLVQPGGSLRLSCAASGFSFTGHWMNWVRQAPGKGLEWVGMIHPSDSETRYNQKFKDRATISVDNSKNTLYLQMNSLRAEDTAVYYCARGIYFYGTTYFDYWGQGTLVTVSS
VL: DIQMTQSPSSLSASVGDRVTITCRASKTISKYLAWYQQKPGKAPKLLIYSGSSLESGVPSRFSGSGSGTDFTLTISSLQPEDFATYYCQQHNEYPLTFGQGTKVEIK
EC50 F(ab)/EC50 F(ab)-2: 1.2

B8: H1 variant IgG1 (antibody, V domains shown)
VH: EVQLVESGGGLVQPGGSLRLSCAASGYAFAGAWMNWVRQAPGKGLEWVGMIHPSDSETRYNQKFKDRFTISVDKSKNTLYLQMNSLRAEDTAVYYCARGIYFYGTTYFDYWGQGTLVTVSS
VL: DIQMTQSPSSLSASVGDRVTITCRASKTISKYLAWYQQKPGKAPKLLIYSGSTLQSGVPSRFSGSGSGTDFTLTISSLQPEDFATYYCQQHNEYPLTFGQGTKVEIK
Var.EC50/HuIgG1 EC50: 5.9

B9: SerH28Ala variant IgG1 (antibody, V domains shown)
VH: EVQLVESGGGLVQPGGSLRLSCAASGYAFTGHWMNWVRQAPGKGLEWVGMIHPSDSETRYNQKFKDRFTISVDKSKNTLYLQMNSLRAEDTAVYYCARGIYFYGTTYFDYWGQGTLVTVSS
VL: DIQMTQSPSSLSASVGDRVTITCRASKTISKYLAWYQQKPGKAPKLLIYSGSTLQSGVPSRFSGSGSGTDFTLTISSLQPEDFATYYCQQHNEYPLTFGQGTKVEIK
Var.EC50/HuIgG1 EC50: 6.9

B10: HisH32Ala variant IgG1 (antibody, V domains shown)
VH: EVQLVESGGGLVQPGGSLRLSCAASGYSFTGAWMNWVRQAPGKGLEWVGMIHPSDSETRYNQKFKDRFTISVDKSKNTLYLQMNSLRAEDTAVYYCARGIYFYGTTYFDYWGQGTLVTVSS
VL: DIQMTQSPSSLSASVGDRVTITCRASKTISKYLAWYQQKPGKAPKLLIYSGSTLQSGVPSRFSGSGSGTDFTLTISSLQPEDFATYYCQQHNEYPLTFGQGTKVEIK
Var.EC50/HuIgG1 EC50: 2.3

B11: HisH52Ser variant IgG1 (antibody, V domains shown)
VH: EVQLVESGGGLVQPGGSLRLSCAASGYSFTGHWMNWVRQAPGKGLEWVGMISPSDSETRYNQKFKDRFTISVDKSKNTLYLQMNSLRAEDTAVYYCARGIYFYGTTYFDYWGQGTLVTVSS
VL: DIQMTQSPSSLSASVGDRVTITCRASKTISKYLAWYQQKPGKAPKLLIYSGSTLQSGVPSRFSGSGSGTDFTLTISSLQPEDFATYYCQQHNEYPLTFGQGTKVEIK
Var.EC50/HuIgG1 EC50: 5

B12: SerH55Asn variant IgG1 (antibody, V domains shown)
VH: EVQLVESGGGLVQPGGSLRLSCAASGYSFTGHWMNWVRQAPGKGLEWVGMIHPSDNETRYNQKFKDRFTISVDKSKNTLYLQMNSLRAEDTAVYYCARGIYFYGTTYFDYWGQGTLVTVSS
VL: DIQMTQSPSSLSASVGDRVTITCRASKTISKYLAWYQQKPGKAPKLLIYSGSTLQSGVPSRFSGSGSGTDFTLTISSLQPEDFATYYCQQHNEYPLTFGQGTKVEIK
Var.EC50/HuIgG1 EC50: 2.1

B13: humanized MHM24 F(ab)-8 (Fab, V domains shown)
VH: EVQLVESGGGLVQPGGSLRLSCAASGYSFTGHWMNWVRQAPGKGLEWVGMIHPSDSETRYNQKFKDRFTISVDKSKNTLYLQMNSLRAEDTAVYYCARGIYFYGTTYFDYWGQGTLVTVSS
VL: DIQMTQSPSSLSASVGDRVTITCRASKTISKYLAWYQQKPGKAPKLLIYSGSTLQSGVPSRFSGSGSGTDFTLTISSLQPEDFATYYCQQHNEYPLTFGQGTKVEIKR
EC50 F(ab)/EC50 F(ab)-2: 0.004

B14: LysH73Ala variant IgG1 (antibody, V domains shown)
VH: EVQLVESGGGLVQPGGSLRLSCAASGYSFTGHWMNWVRQAPGKGLEWVGMIHPSDSETRYNQKFKDRFTISVDASKNTLYLQMNSLRAEDTAVYYCARGIYFYGTTYFDYWGQGTLVTVSS
VL: DIQMTQSPSSLSASVGDRVTITCRASKTISKYLAWYQQKPGKAPKLLIYSGSTLQSGVPSRFSGSGSGTDFTLTISSLQPEDFATYYCQQHNEYPLTFGQGTKVEIK
Var.EC50/HuIgG1 EC50: 5.2

B15: H3B variant IgG1 (antibody, V domains shown)
VH: EVQLVESGGGLVQPGGSLRLSCAASGYSFTGHWMNWVRQAPGKGLEWVGMIHPSDSETRYNQKFKDRFTISVDKSKNTLYLQMNSLRAEDTAVYYCARGIYFYGAAAFDYWGQGTLVTVSS
VL: DIQMTQSPSSLSASVGDRVTITCRASKTISKYLAWYQQKPGKAPKLLIYSGSTLQSGVPSRFSGSGSGTDFTLTISSLQPEDFATYYCQQHNEYPLTFGQGTKVEIK
Var.EC50/HuIgG1 EC50: 34.7

B16: TyrH97Ala variant IgG1 (antibody, V domains shown)
VH: EVQLVESGGGLVQPGGSLRLSCAASGYSFTGHWMNWVRQAPGKGLEWVGMIHPSDSETRYNQKFKDRFTISVDKSKNTLYLQMNSLRAEDTAVYYCARGIAFYGTTYFDYWGQGTLVTVSS
VL: DIQMTQSPSSLSASVGDRVTITCRASKTISKYLAWYQQKPGKAPKLLIYSGSTLQSGVPSRFSGSGSGTDFTLTISSLQPEDFATYYCQQHNEYPLTFGQGTKVEIK
Var.EC50/HuIgG1 EC50: 10.9

B17: TyrH99Ala variant IgG1 (antibody, V domains shown)
VH: EVQLVESGGGLVQPGGSLRLSCAASGYSFTGHWMNWVRQAPGKGLEWVGMIHPSDSETRYNQKFKDRFTISVDKSKNTLYLQMNSLRAEDTAVYYCARGIYFAGTTYFDYWGQGTLVTVSS
VL: DIQMTQSPSSLSASVGDRVTITCRASKTISKYLAWYQQKPGKAPKLLIYSGSTLQSGVPSRFSGSGSGTDFTLTISSLQPEDFATYYCQQHNEYPLTFGQGTKVEIK
Var.EC50/HuIgG1 EC50: 1.4

B18: ThrH100aAla variant IgG1 (antibody, V domains shown)
VH: EVQLVESGGGLVQPGGSLRLSCAASGYSFTGHWMNWVRQAPGKGLEWVGMIHPSDSETRYNQKFKDRFTISVDKSKNTLYLQMNSLRAEDTAVYYCARGIYFYGATYFDYWGQGTLVTVSS
VL: DIQMTQSPSSLSASVGDRVTITCRASKTISKYLAWYQQKPGKAPKLLIYSGSTLQSGVPSRFSGSGSGTDFTLTISSLQPEDFATYYCQQHNEYPLTFGQGTKVEIK
Var.EC50/HuIgG1 EC50: 2.3
